Measurements: PMC11903765, “ARR1 and AHP interactions in the multi-step phosphorelay system” (Frontiers in Plant Science, 2025)

Columns and labels:
[1] = target: biotinylated ARR1-REC-GARP (ARR1 residues 1-296), construct for BLI (Arabidopsis thaliana) (UniProt Q940D0); test: BLI; biotinylated ARR1-REC-GARP immobilised on Octet SA biosensors, AHPs as analytes; fit of the binding kinetics; 20 mM HEPES/NaOH pH 7.0, 50 mM NaCl, 50 mM KCl, 0.5 mM TCEP, 0.5% BSA, 0.05% Tween 20; 25°C
[2] = target: biotinylated ARR1-REC-GARP (ARR1 residues 1-296), construct for BLI (Arabidopsis thaliana) (UniProt Q940D0); test: BLI; biotinylated ARR1-REC-GARP immobilised on Octet SA biosensors, AHPs as analytes; fit of the steady-state data; 20 mM HEPES/NaOH pH 7.0, 50 mM NaCl, 50 mM KCl, 0.5 mM TCEP, 0.5% BSA, 0.05% Tween 20; 25°C
[3] = target: T1, ARR1-REC-GARP (ARR1 residues 38-296), construct for structural studies (Arabidopsis thaliana, UniProt Q940D0 38-296); test: crystal structure; complex from mixing 1 ARR1 : 1.5 AHP1, purified by SEC; crystals from Morpheus G11, pH 8.5, 32.5 mg/mL; 2.9 Å; two complexes in the asymmetric unit; settings: both partners purified
T1 construct: ARR1, Arabidopsis thaliana, UniProt Q940D0, residues 38-296: REC domain (38-158), linker (159-235, not visible in the map), GARP motif (236-296); cloned into pMCSG53; TEV protease was not able to cleave the His-tag, so it stayed on the protein; also called ARR1-RG; source: E. coli BL21 Gold, purified (Ni-NTA; then SEC of the complex)
T1 sequence (looked up): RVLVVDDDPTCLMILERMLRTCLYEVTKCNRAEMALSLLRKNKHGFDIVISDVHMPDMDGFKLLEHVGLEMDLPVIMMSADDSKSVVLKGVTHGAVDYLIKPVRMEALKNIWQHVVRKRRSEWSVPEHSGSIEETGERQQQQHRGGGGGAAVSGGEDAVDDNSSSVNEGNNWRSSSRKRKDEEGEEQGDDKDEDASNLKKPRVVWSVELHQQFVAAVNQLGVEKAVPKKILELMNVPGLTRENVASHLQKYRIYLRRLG

[4] = target: T2, biotinylated ARR1-REC-GARP (ARR1 residues 1-296), construct for BLI (Arabidopsis thaliana, UniProt Q940D0 1-296, biotin on the Avi-tag (by co-expressed BirA)); test: BLI; biotinylated ARR1-REC-GARP immobilised on Octet SA biosensors, AHPs as analytes; fit of the binding kinetics; 20 mM HEPES/NaOH pH 7.0, 50 mM NaCl, 50 mM KCl, 0.5 mM TCEP, 0.5% BSA, 0.05% Tween 20; 25°C; settings: both partners purified
T2 construct: ARR1, Arabidopsis thaliana, UniProt Q940D0, residues 1-296 (REC domain and GARP motif); cloned into pMCSG62, which provides the Avi-tag; The results define ARR1-RG as 38-296; the methods give 1-296 for the BLI construct; also called ARR1-RG; biotinylated variant of ARR1-RG; source: E. coli BL21 Gold, co-expressed with BirA, purified (Ni-NTA)
T2 sequence (looked up): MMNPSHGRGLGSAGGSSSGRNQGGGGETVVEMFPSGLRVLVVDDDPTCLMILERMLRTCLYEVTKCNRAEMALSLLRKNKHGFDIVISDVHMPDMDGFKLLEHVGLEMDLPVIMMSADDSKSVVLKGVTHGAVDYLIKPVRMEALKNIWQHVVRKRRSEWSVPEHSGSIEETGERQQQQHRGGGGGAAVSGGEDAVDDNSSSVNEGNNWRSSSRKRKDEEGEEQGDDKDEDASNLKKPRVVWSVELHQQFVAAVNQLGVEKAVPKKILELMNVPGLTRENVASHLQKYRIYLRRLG

[5] = target: T2, biotinylated ARR1-REC-GARP (ARR1 …); test: BLI; biotinylated ARR1-REC-GARP immobilised on Octet SA biosensors, AHPs as analytes; fit of the steady-state data; 20 mM HEPES/NaOH pH 7.0, 50 mM NaCl, 50 mM KCl, 0.5 mM TCEP, 0.5% BSA, 0.05% Tween 20; 25°C; settings: both partners purified

AHP2 (Arabidopsis histidine-containing phosphotransfer protein 2) (natural protein)
Kd [1]: 160 nM | koff [1]: 0.0913 s⁻¹ | kon [1]: 573000 M⁻¹ s⁻¹ | Kd [2]: 160 nM

AHP3 (Arabidopsis histidine-containing phosphotransfer protein 3) (natural protein)
Kd [1]: 174 nM | koff [1]: 0.0917 s⁻¹ | kon [1]: 522000 M⁻¹ s⁻¹ | Kd [2]: 175 nM

AHP4 (Arabidopsis histidine-containing phosphotransfer protein 4) (natural protein)
Kd [1]: 166 nM | koff [1]: 0.06 s⁻¹ | kon [1]: 360000 M⁻¹ s⁻¹ | Kd [2]: 170 nM

AHP5 (Arabidopsis histidine-containing phosphotransfer protein 5) (natural protein)
Kd [1]: 152 nM | koff [1]: 0.089 s⁻¹ | kon [1]: 588000 M⁻¹ s⁻¹ | Kd [2]: 150 nM

B1: AHP1 (Arabidopsis histidine-containing phosphotransfer protein 1), full length (natural protein, Arabidopsis thaliana, UniProt Q9ZNV9 1-154, looked up)
chain: MDLVQKQKSLQDYTKSLFLEGILDSQFLQLQQLQDESNPDFVSQVVTLFFQDSDRILNDLSLSLDQQVVDFKKVDPHVHQLKGSSSSIGAQRVKNACVVFRSFCEQQNVEACHRCLQQVKQEYYLVKNRLETLFKLEQQIVASGGMIPAVELGF
notes: AHP1, Arabidopsis thaliana, UniProt Q9ZNV9, full-length protein cloned from A. thaliana cDNA into pMCSG53; Unphosphorylated; source: E. coli BL21 Gold, purified (Ni-NTA, TEV digestion, second Ni-NTA, SEC)
stoichiometry N [3]: 1 | Kd [4]: 94 nM | koff [4]: 0.0423 s⁻¹ | kon [4]: 444000 M⁻¹ s⁻¹ | Kd [5]: 94 nM
